# Assay results as given in article PMC13155533, “The secreted protein PCYOX1L controls the surface expression of acid-sensing ion channel 1a” (Science Advances, 2025).
# B1: rat ASIC1a-GFP (natural protein, UniProt P55926-1 1-526, looked up)
# chain: MELKTEEEEVGGVQPVSIQAFASSSTLHGLAHIFSYERLSLKRALWALCFLGSLAVLLCVCTERVQYYFCYHHVTKLDEVAASQLTFPAVTLCNLNEFRFSQVSKNDLYHAGELLALLNNRYEIPDTQMADEKQLEILQDKANFRSFKPKPFNMREFYDRAGHDIRDMLLSCHFRGEACSAEDFKVVFTRYGKCYTFNSGQDGRPRLKTMKGGTGNGLEIMLDIQQDEYLPVWGETDETSFEAGIKVQIHSQDEPPFIDQLGFGVAPGFQTFVSCQEQRLIYLPSPWGTCNAVTMDSDFFDSYSITACRIDCETRYLVENCNCRMVHMPGDAPYCTPEQYKECADPALDFLVEKDQEYCVCEMPCNLTRYGKELSMVKIPSKASAKYLAKKFNKSEQYIGENILVLDIFFEVLNYETIEQKKAYEIAGLLGDIGGQMGLFIGASILTVLELFDYAYEVIKHRLCRRGKCQKEAKRSSADKGVALSLDDVKRHNPCESLRGHPAGMTYAANILPHHPARGTFEDFTC
# notes: ASIC1a, rat, in pEGFP-N1; the methods say that rat ASIC1a was used for coexpression with PCYOX1L in HEK293 cells; The vector pEGFP-N1 would put GFP at the C-terminus; source: HEK cells, transfected, in digitonin lysate
# B2: rat ASIC2a-GFP (natural protein, UniProt Q62962-1 1-512, looked up)
# chain: MDLKESPSEGSLQPSSIQIFANTSTLHGIRHIFVYGPLTIRRVLWAVAFVGSLGLLLVESSERVSYYFSYQHVTKVDEVVAQSLVFPAVTLCNLNGFRFSRLTTNDLYHAGELLALLDVNLQIPDPHLADPTVLEALRQKANFKHYKPKQFSMLEFLHRVGHDLKDMMLYCKFKGQECGHQDFTTVFTKYGKCYMFNSGEDGKPLLTTVKGGTGNGLEIMLDIQQDEYLPIWGETEETTFEAGVKVQIHSQSEPPFIQELGFGVAPGFQTFVATQEQRLTYLPPPWGECRSSEMGLDFFPVYSITACRIDCETRYIVENCNCRMVHMPGDAPFCTPEQHKECAEPALGLLAEKDSNYCLCRTPCNLTRYNKELSMVKIPSKTSAKYLEKKFNKSEKYISENILVLDIFFEALNYETIEQKKAYEVAALLGDIGGQMGLFIGASLLTILELFDYIYELIKEKLLDLLGKEEEEGSHDENMSTCDTMPNHSETISHTVNVPLQTALGTLEEIAC
# notes: ASIC2a, rat, in pEGFP-N1; In the functional row the untagged rat ASIC2a (pcDNA3.1) was used; source: HEK cells, transfected, in digitonin lysate
# How the values were obtained:
# [1] = target: the molecule itself; test: native gel or EMSA; high-resolution clear native PAGE (4 to 16%) of GFP-tagged proteins from 1% digitonin lysates of transfected HEK cells, GFP fluorescence scan; ASIC1a-GFP coexpressed with PCYOX1L-GFP
# [2] = target: the molecule itself; test: native gel or EMSA; high-resolution clear native PAGE (4 to 16%) of GFP-tagged proteins from 1% digitonin lysates of transfected HEK cells, GFP fluorescence scan; without coexpressed PCYOX1L
protein,measurement,setting,value
B1,stoichiometry N,[1],3
B2,stoichiometry N,[2],3
